The source of these data is paper PMC12629460.

What all share (assay): cryo-EM structure
The target of experiment [1] is PltBd2 in the endogenously expressed DiaT holotoxin purified from S. diarizonae (S. diarizonae).
Experiment [2] has as its target PltBd1 recombinantly expressed in E. coli as part of a holotoxin (S. diarizonae).
For experiment [3], the target named is PltBd2 recombinantly expressed in E. coli as part of the PltBd2 homopentameric holotoxin (S. diarizonae).

Consider “PltBd1 in the endogenously expressed DiaT holotoxin purified from S. diarizonae (natural protein)”, for which, in experiment [1], the stoichiometry N (PltBd1 per PltBd2 (3:2)) is 1.5. As for “PltBd1 recombinantly expressed in E. coli as part of a holotoxin (natural protein)”, the stoichiometry N (as a rule, the number of molecules, sites or subunits per partner or assembly) in experiment [2] was 5. Take “PltBd2 recombinantly expressed in E. coli as part of the PltBd2 homopentameric holotoxin (natural protein)”: the stoichiometry N in experiment [3] stood at 5.
